Measurements as given in paper PMC7992989.

Experiments:
[1] = biological target: CP12 from Thalassiosira pseudonana, recombinant, after His tag removal with thrombin (Thalassiosira pseudonana); assay: native MS; native ESI-MS, 5 µM CP12 without histidine tag, 200 mM ammonium acetate pH 8.0, source temperature 20 °C; dimer to monomers
[2] = biological target: recombinant histidine tagged CP12 from Thalassiosira pseudonana (Thalassiosira pseudonana); assay: SEC-SAXS; 50 µL of His-tagged CP12 at 11 mg/mL on Agilent Bio-SEC-3 300 Å, 15 °C, 30 mM Tris, 50 mM NaCl, 2 mM EDTA, 1 mM TCEP, pH 7.5; mass from the forward scattering intensity

Substance	stoichiometry N [1]	stoichiometry N [2]
CP12 from Thalassiosira pseudonana, recombinant, after His tag removal with thrombin (natural protein)	2	
recombinant histidine tagged CP12 from Thalassiosira pseudonana (natural protein)		2
